Data reported in PMC8722602 (bioRxiv, 2021).

Molecular target: SARS-CoV-2 RBD-his tag protein (SARS-CoV-2, ancestral (Wuhan-Hu-1/WA1), UniProt P0DTC2)
Experiment: ELISA

B1: Clone 2 (recombinant mAb, mouse variable regions on human IgG1) (antibody, V domains shown)
VH: EVQLQQSGPELVKPGASVKISCKASGYSFTGYSMNWMKQSPEKSLEWIGEINPSTGGTTDNQKFKAKATLTVDKSSSTAYMQLKSLTSEDSAVYYCARSRGDYWGQGTSVTVSS
VL: DIVLTQSPASLAVSLGQRATISCRASESVEYYGTSLMQWYQQKPGQPPKVLIYAASNVESGVPARFSGSGSGTDFSLNIHPVEEDDIAMYFCQQSRKVPWTFGGGTKLEIK
- binding result: binds

B2: Clone 6 (recombinant mAb, mouse variable regions on human IgG1) (antibody, V domains shown)
VH: QVQLQQSAAELARPGASVKMSCKASGYTFTSYTMHWVKQRPGQGLEWIGYINPTSGYTEYNQNFKDKTTLTADKSSSTAYMQLNSLTSEDSAVYYCAREGHRVGPAYWGQGTLVTVSA
VL: not shown
- binding result: binds
